Source: publication PMC5886718

Experiments:
[1] = molecular target: Glycine oxidase from Pseudoalteromonas luteoviolacea CPMOR-2 (PlGoxA) (Pseudoalteromonas luteoviolacea CPMOR-2); assay: crystal structure
[2] = molecular target: Glycine oxidase from Pseudoalteromonas luteoviolacea CPMOR-2 (PlGoxA) (Pseudoalteromonas luteoviolacea CPMOR-2); assay: SEC

“Glycine oxidase from Pseudoalteromonas luteoviolacea CPMOR-2 (PlGoxA) (enzyme)” was tested, and the stoichiometry N [1] was 4 and the stoichiometry N [2] was 4.
